In the supplement of paper PMC10567573:

B1: EDARADD (parent)
chain: VEKVLRRWVDEEWPKRERGDPSRH

Variants of: B1
Assay: protein stability index of a GFP-peptide fusion (GPS, HEK-293T) (PSI 1-6); higher = more stable
Conditions: c terminus: a fixed tail appended
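Further: lentivirally expressed fusions sorted by FACS into six bins by GFP to DsRed ratio, PSI derived from sequencing read proportions per bin multiplied by bin number.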

First: YEKVLRRWVDEEWPKRERGDPSRH [V1Y]
Second: DEKVLRRWVDEEWPKRERGDPSRH [V1D]
The protein stability index of the first is lower: 2.56 for the first, 4.36 for the second.

Compared with QEKVLRRWVDEEWPKRERGDPSRH [V1Q], SEKVLRRWVDEEWPKRERGDPSRH [V1S] is lower in protein stability index: 2.65 for the first, 2.39 for the second.

Compared with REKVLRRWVDEEWPKRERGDPSRH [V1R], KEKVLRRWVDEEWPKRERGDPSRH [V1K] is lower in protein stability index: 4.16 for the first, 2.85 for the second.

Going from TEKVLRRWVDEEWPKRERGDPSRH [V1T] to FEKVLRRWVDEEWPKRERGDPSRH [V1F], the protein stability index falls from 2.91 to 1.98.

Compared with NEKVLRRWVDEEWPKRERGDPSRH [V1N], EEKVLRRWVDEEWPKRERGDPSRH [V1E] is higher in protein stability index: 3.91 for the first, 4.19 for the second.

First: HEKVLRRWVDEEWPKRERGDPSRH [V1H]
Second: WEKVLRRWVDEEWPKRERGDPSRH [V1W]
The protein stability index of the first is higher: 3.42 for the first, 2.28 for the second.

First: MEKVLRRWVDEEWPKRERGDPSRH [V1M]
Second: AEKVLRRWVDEEWPKRERGDPSRH [V1A]
The protein stability index of the first is lower: 2.95 for the first, 4.29 for the second.

Going from PEKVLRRWVDEEWPKRERGDPSRH [V1P] to LEKVLRRWVDEEWPKRERGDPSRH [V1L], the protein stability index falls from 3.94 to 2.19.

Going from CEKVLRRWVDEEWPKRERGDPSRH [V1C] to GEKVLRRWVDEEWPKRERGDPSRH [V1G], the protein stability index rises from 2.77 to 3.61.

First: IEKVLRRWVDEEWPKRERGDPSRH [V1I]
Second: VEGVLRRWVDEEWPKRERGDPSRH [K3G]
The protein stability index of the first is lower: 2.2 for the first, 4.05 for the second.

Going from VEHVLRRWVDEEWPKRERGDPSRH [K3H] to VEEVLRRWVDEEWPKRERGDPSRH [K3E], the protein stability index falls from 5.03 to 3.55.

Going from VEAVLRRWVDEEWPKRERGDPSRH [K3A] to VENVLRRWVDEEWPKRERGDPSRH [K3N], the protein stability index rises from 2.78 to 3.26.

Compared with VESVLRRWVDEEWPKRERGDPSRH [K3S], VEWVLRRWVDEEWPKRERGDPSRH [K3W] is lower in protein stability index: 3.01 for the first, 1.36 for the second.

Going from VEFVLRRWVDEEWPKRERGDPSRH [K3F] to VECVLRRWVDEEWPKRERGDPSRH [K3C], the protein stability index rises from 2.21 to 3.38.

Going from VEVVLRRWVDEEWPKRERGDPSRH [K3V] to VEDVLRRWVDEEWPKRERGDPSRH [K3D], the protein stability index rises from 2.09 to 4.38.

Compared with VEQVLRRWVDEEWPKRERGDPSRH [K3Q], VEPVLRRWVDEEWPKRERGDPSRH [K3P] is higher in protein stability index: 2.85 for the first, 3.8 for the second.

Going from VEYVLRRWVDEEWPKRERGDPSRH [K3Y] to VEIVLRRWVDEEWPKRERGDPSRH [K3I], the protein stability index falls from 2.77 to 1.25.

Compared with VELVLRRWVDEEWPKRERGDPSRH [K3L], VETVLRRWVDEEWPKRERGDPSRH [K3T] is lower in protein stability index: 2.41 for the first, 2.14 for the second.

Going from VEKVLRRWTDEEWPKRERGDPSRH [V9T] to VEKVLRRWPDEEWPKRERGDPSRH [V9P], the protein stability index falls from 3.72 to 3.51.

First: VEKVLRRWDDEEWPKRERGDPSRH [V9D]
Second: VEKVLRRWFDEEWPKRERGDPSRH [V9F]
The protein stability index of the first is higher: 4.36 for the first, 2.55 for the second.

Compared with VEKVLRRWKDEEWPKRERGDPSRH [V9K], VEKVLRRWEDEEWPKRERGDPSRH [V9E] is higher in protein stability index: 2.9 for the first, 4.17 for the second.

Compared with VEKVLRRWSDEEWPKRERGDPSRH [V9S], VEKVLRRWRDEEWPKRERGDPSRH [V9R] is lower in protein stability index: 4.07 for the first, 3.48 for the second.

Compared with VEKVLRRWYDEEWPKRERGDPSRH [V9Y], VEKVLRRWWDEEWPKRERGDPSRH [V9W] is lower in protein stability index: 3.1 for the first, 3.05 for the second.

Going from VEKVLRRWIDEEWPKRERGDPSRH [V9I] to VEKVLRRWGDEEWPKRERGDPSRH [V9G], the protein stability index rises from 2.38 to 3.83.

Compared with VEKVLRRWMDEEWPKRERGDPSRH [V9M], VEKVLRRWADEEWPKRERGDPSRH [V9A] is higher in protein stability index: 3.17 for the first, 3.57 for the second.

Compared with VEKVLRRWNDEEWPKRERGDPSRH [V9N], VEKVLRRWHDEEWPKRERGDPSRH [V9H] is lower in protein stability index: 3.59 for the first, 3.46 for the second.

Going from VEKVLRRWCDEEWPKRERGDPSRH [V9C] to VEKVLRRWQDEEWPKRERGDPSRH [V9Q], the protein stability index rises from 2.72 to 3.31.

Compared with VEKVLARWVDEEWPKRERGDPSRH [R6A], VEKVLKRWVDEEWPKRERGDPSRH [R6K] is lower in protein stability index: 3.88 for the first, 3.86 for the second.

Going from VEKVLWRWVDEEWPKRERGDPSRH [R6W] to VEKVLNRWVDEEWPKRERGDPSRH [R6N], the protein stability index rises from 3.38 to 3.94.

Compared with VEKVLSRWVDEEWPKRERGDPSRH [R6S], VEKVLDRWVDEEWPKRERGDPSRH [R6D] is higher in protein stability index: 3.6 for the first, 4.34 for the second.

First: VEKVLYRWVDEEWPKRERGDPSRH [R6Y]
Second: VEKVLTRWVDEEWPKRERGDPSRH [R6T]
The protein stability index of the first is lower: 3.13 for the first, 3.84 for the second.

First: VEKVLFRWVDEEWPKRERGDPSRH [R6F]
Second: VEKVLLRWVDEEWPKRERGDPSRH [R6L]
The protein stability index of the first is higher: 2.76 for the first, 2.57 for the second.

First: VEKVLCRWVDEEWPKRERGDPSRH [R6C]
Second: VEKVLQRWVDEEWPKRERGDPSRH [R6Q]
The protein stability index of the first is lower: 3.06 for the first, 3.79 for the second.

Compared with VEKVLPRWVDEEWPKRERGDPSRH [R6P], VEKVLIRWVDEEWPKRERGDPSRH [R6I] is lower in protein stability index: 5.27 for the first, 2.47 for the second.

Compared with VEKVLMRWVDEEWPKRERGDPSRH [R6M], VEKVLGRWVDEEWPKRERGDPSRH [R6G] is lower in protein stability index: 3.14 for the first, 3.12 for the second.

First: VEKVLERWVDEEWPKRERGDPSRH [R6E]
Second: VEKVGRRWVDEEWPKRERGDPSRH [L5G]
The protein stability index of the first is lower: 3.72 for the first, 4.19 for the second.

Going from VEKVMRRWVDEEWPKRERGDPSRH [L5M] to VEKVRRRWVDEEWPKRERGDPSRH [L5R], the protein stability index falls from 3.3 to 1.99.

Compared with VEKVHRRWVDEEWPKRERGDPSRH [L5H], VEKVFRRWVDEEWPKRERGDPSRH [L5F] is lower in protein stability index: 4.26 for the first, 3.25 for the second.

Going from VEKVTRRWVDEEWPKRERGDPSRH [L5T] to VEKVPRRWVDEEWPKRERGDPSRH [L5P], the protein stability index rises from 3.98 to 4.07.

Going from VEKVSRRWVDEEWPKRERGDPSRH [L5S] to VEKVWRRWVDEEWPKRERGDPSRH [L5W], the protein stability index rises from 2.8 to 2.98.

First: VEKVQRRWVDEEWPKRERGDPSRH [L5Q]
Second: VEKVNRRWVDEEWPKRERGDPSRH [L5N]
The protein stability index of the first is lower: 2.78 for the first, 3.94 for the second.

First: VEKVCRRWVDEEWPKRERGDPSRH [L5C]
Second: VEKVKRRWVDEEWPKRERGDPSRH [L5K]
The protein stability index of the first is lower: 2.71 for the first, 2.96 for the second.

First: VEKVARRWVDEEWPKRERGDPSRH [L5A]
Second: VEKVIRRWVDEEWPKRERGDPSRH [L5I]
The protein stability index of the first is higher: 4.3 for the first, 2.96 for the second.

First: VEKVERRWVDEEWPKRERGDPSRH [L5E]
Second: VEKVDRRWVDEEWPKRERGDPSRH [L5D]
The protein stability index of the first is lower: 4.5 for the first, 4.57 for the second.

First: VEKVYRRWVDEEWPKRERGDPSRH [L5Y]
Second: VEKVVRRWVDEEWPKRERGDPSRH [L5V]
The protein stability index of the first is lower: 2.34 for the first, 3.23 for the second.

First: VEKVLRRWVDDEWPKRERGDPSRH [E11D]
Second: VEKVLRRWVDFEWPKRERGDPSRH [E11F]
The protein stability index of the first is higher: 3.28 for the first, 2.16 for the second.

Going from VEKVLRRWVDGEWPKRERGDPSRH [E11G] to VEKVLRRWVDHEWPKRERGDPSRH [E11H], the protein stability index falls from 3.1 to 2.44.
